Measurements as given in patent publication US20090317333.

System: AKAR3 (A-Kinase Activity Reporter 3)

With “catalytic subunit of PKA (protein kinase A), as used in the in vitro kinase assay” the “FRET efficiency of AKAR3 after phosphorylation (trypsin quantification)” value was 38.8%±7.36% and 47.2%±7.67% (n=2) before and after phosphorylation, respectively, the “FRET efficiency of AKAR3 before phosphorylation (trypsin quantification)” value was 38.8%±7.36% and 47.2%±7.67% (n=2) before and after phosphorylation, respectively and the “increase of the emission ratio of AKAR3 over approximately 40 minutes after addition of ATP (in vitro kinase assay)” value was 29.1%±1.11% (n=2).
